Assay results from patent US7208311B2, “Catalytic domain of ADAM33 and methods of use thereof” (Schering Corporation, priority 2002, dated 2007).
Where a chain is given by its changes, count along the chain named. Numbers in names are those of the source. Each block holds one molecule with its values, some of them ahead of it.

Legend:
ADAM33 [1] = target: T1, ADAM33 (Homo sapiens, UniProt Q9BZ11); assay: MCF 12-mer peptide proteolysis assay (HPLC); type: biochemical; details: for ADAM33 activity in the presence of inhibitor: 1 mM inhibitor
T1 construct: made in house; host or cells: Drosophila melanogaster S2 cells
T1 sequence (Q9BZ11 204-409): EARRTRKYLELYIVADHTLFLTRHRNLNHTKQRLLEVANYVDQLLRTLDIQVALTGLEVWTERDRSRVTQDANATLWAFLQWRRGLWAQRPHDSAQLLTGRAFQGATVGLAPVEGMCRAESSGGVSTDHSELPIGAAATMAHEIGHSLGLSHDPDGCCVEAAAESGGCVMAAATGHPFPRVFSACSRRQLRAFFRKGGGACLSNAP
Experimental: A 12-mer peptide (i.e. Ac-LPPVAASSLNRD-NH2; SEQ ID NO: 48), derived from human mast-cell growth factor (accession number NP-038626) was synthesized as a substrate for ADAM33. Reactions were initiated by addition of 200 nM enzyme to appropriate amounts of substrate in assay buffer (25 mM HEPES, pH 7.5, 0.5 M NaCl, 0.1% n-octyl-β-D-glucoside), incubated at 22° C. for 2 h and subsequently quenched with 1% TFA. When inhibitors were evaluated, the enzyme and inhibitors were preincubated at 22° C. for 30 min prior to initiation of the assays. Substrate and products were separated by HPLC using a C-8 reverse phase column (Zobrax 3.5 μm, 4.6 mmD/5 cmL, Agilent, Palo Alto, Calif., 0.1% TFA acetonitrile/H2O). Elution was monitored at 214 nm, and peaks identified by mass spectroscopy. Initial rates of proteolysis were determined using reactions in which less than 10% of the substrate was consumed. kcat/Km values were calculated assuming the enzymes were 100% active.
Production of ADAM33 and mutants thereof were produced essentially as described in Example 1. Proteolytic assays and methods for determining catalytic rates are essentially as described in Examples 2 and 3.

ADAM33 [2] = target: T1, ADAM33; assay: HPLC peptide substrate cleavage assay with ADAM33; type: biochemical; details: for cleavage site of peptide: identified by MALDI-TOF MS; for cleavage of peptide by ADAM33: peptide 50 μM, ADAM33 0.1–0.5 μM, 2 h RT
Experimental: The peptide substrate (50 μM) was incubated with or without ADAM33 (0.1–0.5 μM) in assay buffer (20 mM HEPES, pH 7.5, 0.5 M NaCl, 0.2 mg/ml bovine serum albumin (BSA)) for 2 hours (h) at room temperature (RT) in the presence or absence of various inhibitors [5 mM 1, 10-phenanthroline, or a protease inhibitor cocktail (2 μg/ml leupeptin, 0.4 μM benzamidine, 10 μg/ml soybean trypsin inhibitor and 0.5 mM iodoacetamide)]. The reaction was stopped by adding 10% trifluoroacetic acid (TFA) to a final concentration of 1% and samples were analyzed on Agilent HPLC model 1100 with C8 column. Solvents were: A, 0.1% TFA in water; B, 0.09% TFA in acetonitrile. A linear gradient from 2 to 42% B was run over 7 min at 1.5 ml/min and the eluate was monitored at 214 nm. The percentage of peptide cleavage was calculated using the peak area of the cleaved products divided by the sum of the peak areas of both the products and the remaining substrate. The cleavage sites of the peptide were identified by matrix-assisted laser-desorption/ionization time-of-flight (MALDI-TOF) mass spectrometry.
Specificity constants of peptide substrates, APP and KL-1, were obtained by using the HPLC assay described above. In brief, ADAM33cat (80 nM) was incubated with peptide substrate (30–2000 μM) in assay buffer for 10–60 min at RT. Reactions were timed to allow less than 15% turnover of the substrate. The initial cleavage velocities of the peptides were obtained by plotting cleaved product versus reaction time. The specificity constants, kcat/Km, were determined based on best fit of the data with the Michaelis-Menten equation when substrate concentration S<<Km.

[3] = Thermal denaturation monitored by circular dichroism (220 nm); type: physicochemical
Experimental: The effect of CaCl2 on the stability of the ADAM33 N231Q catalytic domain as determined by thermal denaturation: The effect of the concentration of CaCl2 on the retention of the secondary structure of the ADAM33 N231 Q catalytic domain was monitored by circular dichroism (λ220 nm) as a function of temperature. A parallel study was performed replacing the CaCl2 with NaCl to control for the effect of the corresponding increase in ionic strength. The ADAM33 N231Q catalytic domain was purified as described above and then diluted to 0.2 mg/ml. The sample was then dialyzed against 25 mM Hepes, pH 7.5, 5% glycerol overnight. The temperature dependent protein denaturation was performed using a JASCO 810 spectropolarimeter under the following conditions: • Protein concentration: 0.2 mg/ml (based on a BioRad Protein Assay) • Cell length: 0.1 cm • Monitor wavelength: 220 nm • Temperature slope: 2° C./min • Measurement range: 20–80° C.

Molecule: O=C(O)CN(CCN(CC(=O)O)CC(=O)O)CC(=O)O [EDTA]
ADAM33 activity in the presence of inhibitor (ADAM33 [1]): completely abolished

Molecule: c1cnc2c(c1)ccc1cccnc12 [1,10-phenanthroline]
ADAM33 activity in the presence of inhibitor (ADAM33 [1]): completely abolished

B1: ADAM33 N231Q: modified ADAM33 catalytic domain N231Q, SEQ ID NO: 8 with C-terminal Ser-Gly His6 Tag (protein)
chain: T1 sequence (Q9BZ11 204-409) with N28Q
modifications: C-terminal Ser-Gly His6 tag; homo sapiens
Denaturation Temp. ([3]; CaCl2 0 mM): 43.5 °C | ΔDenaturation Temp. ([3]; CaCl2 0 mM): 0.0 °C | Denaturation Temp. ([3]; CaCl2 0.003 mM): 50.6 °C | ΔDenaturation Temp. ([3]; CaCl2 0.003 mM): 7.1 °C | Denaturation Temp. ([3]; CaCl2 0.03 mM): 52.9 °C | ΔDenaturation Temp. ([3]; CaCl2 0.03 mM): 9.4 °C | Denaturation Temp. ([3]; CaCl2 0.3 mM): 53.9 °C | ΔDenaturation Temp. ([3]; CaCl2 0.3 mM): 10.4 °C | Denaturation Temp. ([3]; CaCl2 0.5 mM): 56.9 °C | ΔDenaturation Temp. ([3]; CaCl2 0.5 mM): 13.4 °C | Denaturation Temp. ([3]; CaCl2 1.0 mM): 57.9 °C | ΔDenaturation Temp. ([3]; CaCl2 1.0 mM): 14.4 °C | Denaturation Temp. ([3]; CaCl2 2.5 mM): 60.6 °C | ΔDenaturation Temp. ([3]; CaCl2 2.5 mM): 17.1 °C | Denaturation Temp. ([3]; CaCl2 5.0 mM): 61.5 °C | ΔDenaturation Temp. ([3]; CaCl2 5.0 mM): 18.0 °C | Denaturation Temp. ([3]; CaCl2 10.0 mM): 63.3 °C | ΔDenaturation Temp. ([3]; CaCl2 10.0 mM): 19.8 °C | Denaturation Temp. ([3]; CaCl2 25.0 mM): 64.6 °C | ΔDenaturation Temp. ([3]; CaCl2 25.0 mM): 21.1 °C | Denaturation Temp. ([3]; CaCl2 50.0 mM): 65.6 °C | ΔDenaturation Temp. ([3]; CaCl2 50.0 mM): 22.1 °C | Denaturation Temp. ([3]; CaCl2 100.0 mM): 65.2 °C | ΔDenaturation Temp. ([3]; CaCl2 100.0 mM): 21.7 °C

B2: CAT domain: purified catalytic (protease) domain of human ADAM33 (protein)
chain: EARRTRKYLELYIVADHTLFLTRHRNLNHTKQRLLEVANYVDQLLRTLDIQVALTGLEVWTERDRSRVTQDANATLWAFLQWRRGLWAQRPHDSAQLLTGRAFQGATVGLAPVEGMCRAESSGGVSTDHSELPIGAAATMAHEIGHSLGLSHDPDGCCVEAAAESGGCVMAAATGHPFPRVFSACSRRQLRAFFRKGGGACLSNAPSGHHHHHH
catalytic efficiency (ADAM33 [1]; MCF peptide substrate, estimated): 2.6±0.5)×10^2 M^−1 s^−1

Now from value to molecule, other results behind:

Km (ADAM33 [1]; 200 nM enzyme, 10–500 μM substrate, room temperature): > 500 µM
Molecule: Ac-LPPVAASSLNRD-NH2 [MCF substrate peptide]
cleavage site of MCF peptide by wild-type ADAM33 (ADAM33 [1]): between the residues corresponding to Ala-190 and Ser-191

cleavage site of peptide (ADAM33 [2]): A*L | cleavage of peptide by ADAM33 (ADAM33 [2]): cleaved
Molecule: insulin B chain: peptide substrate HLVEALYLVC; SEQ ID NO: 45 (insulin B chain peptide)

cleavage site of peptide (ADAM33 [2]): H*I | cleavage of peptide by ADAM33 (ADAM33 [2]): cleaved
Molecule: TRANCE: peptide substrate VGSQHIRAEK; SEQ ID NO: 44 (TRANCE Peptide)
